{
  "source": "patent US9101618B2",
  "about": "“Method for treating and/or preventing neurodegenerative disease by adiponectin receptor agonist” (TOKYO METROPOLITAN INSTITUTE OF MEDICAL SCIENCE, priority 2011, dated 2015)",
  "format_in_all_cases": "cell-based, rat",
  "key": {"GSK-3β (beta) [1]": {"tested_on": "GSK-3β (beta)", "test": "Addition of p38 MAPK inhibitor and AMPK inhibitor: phospho-GSK-3β western blotting", "details": "1 μg/mL adiponectin 30 min, no inhibitor", "method": "The aforementioned B103 neuroblastoma cells (α (alpha)S) were inoculated on the 6-well plate and cultured to a state of about 80-90% confluence. After washing with PBS, the aforementioned cells were further cultured for 10 min in an inhibition test medium prepared by adding either 5 μM p38 MAPK inhibitor (SB203580, Promega) or 5 μM AMPK inhibitor (Compound C, Calbiochem) to a serum-free medium. As a control, DMSO was added to a serum-free medium instead of the aforementioned inhibitors. Later, either recombinant human adiponectin (1 μg/mL, trimer, PROSPEC) or PBS was added so as to culture the cells for 30 min. The cells collected were then lysed with the aforementioned cell lysis solution. Supernatants were collected after performing centrifugation at 100,000×g for 30 min, and then subjected to western blotting. Here, western blotting was performed in accordance with the procedures described in example 1.\nWhen performing western blotting to evaluate signal transduction pathways, the anti-phospho-GSK-3β (beta) (Ser9) antibody (D85E12, Cell Signaling Technology), the anti-GSK-3β (beta) antibody (BD Biosciences) and the anti-β (beta)-actin mouse monoclonal antibody (C-15, Sigma-Aldrich Japan Inc.) were used as primary antibodies after being appropriately diluted. Further, the HRP labeled anti-mouse IgG antibody (DAKO) was used as a secondary antibody after being appropriately diluted."}, "GSK-3β (beta) [2]": {"tested_on": "GSK-3β (beta)", "test": "Adiponectin addition (2): signal transduction, phospho-GSK-3β western blotting", "details": "1 μg/mL, 0, 10 and 30 min", "method": "(§1) The B103 neuroblastoma cells (α (alpha)S) and the B103 neuroblastoma cells (vector) were inoculated on a 5 cm dish and cultured to a state of about 80-90% confluence. Later, the aforementioned cells were washed with PBS, and then cultured in a serum-free medium for four hours. After washing with PBS, the cells were then cultured in a test medium (adiponectin-added group) prepared by adding recombinant human adiponectin (1_μg/mL, trimer, PROSPEC) to a serum-free medium. As a control, there was used a control medium (adiponectin non-added group) prepared by adding thereto PBS instead of recombinant human adiponectin. A culture time was 0, 10 and 30 min when evaluating signal transduction, 0, 1 and 2 hour(s) when evaluating tau phosphorylation. The cells collected were lysed with a cell lysis solution (1% TritonX-100, 1% Nonidet P-40, 50 mM HEPES, 150 mM NaCl, 10% glycerol, 1.5 mM MgCl2, 1 mM EGTA, 100_mM sodium fluoride, a protease inhibitor (NACALAI TESQUE, INC.)). Supernatants were collected after performing centrifugation at 100,000×g for 30 min, and were used as surfactant soluble fractions when performing western blotting. Here, western blotting was performed in accordance with the procedures described in example 1. […]"}, "p38 MAPK": {"tested_on": "p38 MAPK", "test": "Adiponectin addition (2): signal transduction, phospho-p38 MAPK western blotting", "details": "1 μg/mL, 0, 10 and 30 min", "method": "as §1"}, "[3]": {"tested_on": "B103 neuroblastoma cells (α (alpha)S)", "test": "Immunoprecipitation with anti-α-synuclein antibody, detection of phosphorylated tau (Ser 202)", "details": "1 μg/mL, 24 hours, NP40 soluble fraction", "method": "Immunoprecipitation was performed by standard procedures known to those skilled in the art. Briefly, the B103 neuroblastoma cells (α (alpha)S) were inoculated on a 10 cm dish, and were cultured to a state of about 80-90% confluence. The cells were then washed with PBS, followed by being cultured in a test medium (adiponectin-added group) prepared by adding recombinant human adiponectin (1 μg/mL, trimer, PROSPEC) to a serum-free medium. As a control, there was used a control medium (adiponectin non-added group) prepared by adding thereto PBS instead of recombinant human adiponectin. After being cultured for 24 hours, the cells were then lysed with a NP40 lysis solution (1% IGEPAL CA630 (Sigma-Aldrich Japan Inc), 150 mM NaCl, 50 mM Tris-HCl (pH 8.0), a protease inhibitor (NACALAI TESQUE, INC.)). Supernatants were collected after performing centrifugation at 100,000×g for 30 min. The supernatants thus collected were used as NP40 soluble fractions when performing immunoprecipitation. Immunoprecipitation was performed using Immunoprecipitation Starter Pack (GE Healthcare Japan Corporation) in accordance with a manual provided by the manufacturer and vender. […]"}, "AMPK": {"tested_on": "AMPK", "test": "Adiponectin addition (2): signal transduction, phospho-AMPK western blotting", "details": "1 μg/mL, 0, 10 and 30 min", "method": "as §1"}},
  "data": [
    {"molecule": "adiponectin: recombinant human adiponectin (trimer, PROSPEC) added to serum-free medium at 1 μg/mL (protein, UniProt Q15848 19-244, looked up) Adiponectin: ETTTQGPGVLLPLPKGACTGWMAGIPGHPGHNGAPGRDGRDGTPGEKGEKGDPGLIGPKGDIGETGVPGAEGPRGFPGIQGRKGEPGEGAYVYRSAFSVGLETYVTIPNMPIRFTKIFYNQQNHYDGSTGKFHCNIPGLYYFAYHITVYMKDVKVSLFKKDKAMLFTYDQYQENNVDQASGSVLLHLEVGDQVWLQVYGEGERNGLYADNDNDSTFTGFLLYHDTN", "values": [
      {"measurement": "phosphorylated GSK-3β in surfactant soluble fraction", "setting": "GSK-3β (beta) [1]", "value": "detected"},
      {"measurement": "phosphorylation of GSK-3β", "setting": "GSK-3β (beta) [2]", "value": "promoted"},
      {"measurement": "phosphorylation of p38 MAPK", "setting": "p38 MAPK", "value": "promoted"},
      {"measurement": "coprecipitation of phosphorylated tau with α-synuclein", "setting": "[3]", "value": "did not coprecipitate"},
      {"measurement": "phosphorylation of AMPK", "setting": "AMPK", "value": "promoted"}
    ]}
  ]
}
